Measured values from article PMC4945140 (Molecular Biology of the Cell, 2016).

B1: Cdc11-capped septin hetero-octamers (Cdc11-Cdc12-Cdc3-Cdc10-Cdc10-Cdc3-Cdc12-Cdc11) (complex)
chain 1: MSGIIDASSALRKRKHLKRGITFTVMIVGQSGSGRSTFINTLCGQQVVDTSTTILLPTDTSTEIDLQLREETVELEDDEGVKIQLNIIDTPGFGDSLDNSPSFEIISDYIRHQYDEILLEESRVRRNPRFKDGRVHCCLYLINPTGHGLKEIDVEFIRQLGSLVNIIPVISKSDSLTRDELKLNKKLIMEDIDRWNLPIYNFPFDEDEISDEDYETNMYLRTLLPFAIIGSNEVYEMGGDVGTIRGRKYPWGILDVEDSSISDFVILRNALLISHLHDLKNYTHEILYERYRTEALSGESVAAESIRPNLTKLNGSSSSSTTTRRNTNPFKQSNNINNDVLNPASDMHGQSTGENNETYMTREEQIRLEEERLKAFEERVQQELLLKRQELLQREKELREIEARLEKEAKIKQEE
chain 2: MSAATATAAPVPPPVGISNLPNQRYKIVNEEGGTFTVMLCGESGLGKTTFINTLFQTVLKRADGQQHRQEPIRKTVEIDITRALLEEKHFELRVNVIDTPGFGDNVNNNKAWQPLVDFIDDQHDSYMRQEQQPYRTKKFDLRVHAVLYFIRPTGHGLKPIDIETMKRLSTRANLIPVIAKADTLTAQELQQFKSRIRQVIEAQEIRIFTPPLDADSKEDAKSGSNPDSAAVEHARQLIEAMPFAIVGSEKKFDNGQGTQVVARKYPWGLVEIENDSHCDFRKLRALLLRTYLLDLISTTQEMHYETYRRLRLEGHENTGEGNEDFTLPAIAPARKLSHNPRYKEEENALKKYFTDQVKAEEQRFRQWEQNIVNERIRLNGDLEEIQGKVKKLEEQVKSLQVKKSHLK
chain 3: MSLKEEQVSIKQDPEQEERQHDQFNDVQIKQESQDHDGVDSQYTNGTQNDDSERFEAAESDVKVEPGLGMGITSSQSEKGQVLPDQPEIKFIRRQINGYVGFANLPKQWHRRSIKNGFSFNLLCVGPDGIGKTTLMKTLFNNDDIEANLVKDYEEELANDQEEEEGQGEGHENQSQEQRHKVKIKSYESVIEENGVKLNLNVIDTEGFGDFLNNDQKSWDPIIKEIDSRFDQYLDAENKINRHSINDKRIHACLYFIEPTGHYLKPLDLKFMQSVYEKCNLIPVIAKSDILTDEEILSFKKTIMNQLIQSNIELFKPPIYSNDDAENSHLSERLFSSLPYAVIGSNDIVENYSGNQVRGRSYPWGVIEVDNDNHSDFNLLKNLLIKQFMEELKERTSKILYENYRSSKLAKLGIKQDNSVFKEFDPISKQQEEKTLHEAKLAKLEIEMKTVFQQKVSEKEKKLQKSETELFARHKEMKEKLTKQLKALEDKKKQLELSINSASPNVNHSPVPTKKKGFLR
chain 4: MDPLSSVQPASYVGFDTITNQIEHRLLKKGFQFNIMVVGQSGLGKSTLINTLFASHLIDSATGDDISALPVTKTTEMKISTHTLVEDRVRLNINVIDTPGFGDFIDNSKAWEPIVKYIKEQHSQYLRKELTAQRERFITDTRVHAILYFLQPNGKELSRLDVEALKRLTEIANVIPVIGKSDTLTLDERTEFRELIQNEFEKYNFKIYPYDSEELTDEELELNRSVRSIIPFAVVGSENEIEINGETFRGRKTRWSAINVEDINQCDFVYLREFLIRTHLQDLIETTSYIHYEGFRARQLIALKENANSRSSAHMSSNAIQR
B2: His6-MBP-Hsl1(611–950) fusion protein (domain or fragment)
chain: RETVHDNEMPLPQLPKSPSRYSLSRRAIHASPSTKSIHKSLSRKNIAATVAARRTLQNSASKRSLYSLQSISKRSLNLNDLLVFDDPLPSKKPASENVNKSEPHSLESDSDFEILCDQILFGNALDRILEEEEDNEKERDTQRQRQNDTKSSADTFTISGVSTNKENEGPEYPTKIEKNQFNMSYKPSENMSGLSSFPIFEKENTLSSSYLEEQKPKRAALSDITNSFNKMNKQEGMRIEKKIQREQLQKKNDRPSPLKPIQHQELRVNSLPNDQGKPSLSLDPRRNISQPVNSKVESLLQGLKFKKEPASHWTHERGSLFMSEHVEDEKPVKASDVSIE

Columns and labels:
co-sedimentation = biological target: the molecule itself; assay: co-sedimentation
[1] = biological target: B1; assay: co-sedimentation

| Binder | binding result (co-sedimentation) | binding result [1] |
| --- | --- | --- |
| B1 | binds |  |
| B2 |  | binds |
